Test results taken from the supplement of paper PMC7877785.
± gives the uncertainty stated by the source.

Assay: self-splicing fitness, log relative to wild type (ln ratio); higher = more splicing; Tetrahymena group I intron in knt gene, E. coli kanamycin selection, DiMSum; sequences stand for … in CUCUCU…GGAGGGAAAAGUUAUCAGGCAUGCACCUGGUAGCUAGUCUUUAAACCAAUAGAUUGCAUCGGUUUAAAAGGCAAGACCGUCAAAUUGCGGGAAAGGGGUCAACAGCCGUUCAGUACCAAGUCUCAGGGGAAACUUUGAGAUGGCCUUGCAAAGGGUAUGGUAAUAAGCUGACGGACAUGGUCCUAACCACGCAGCCAAGUCCUAAGUCAACAGAUCUUCUGUUGAUAUGGAUGCAGUUCACAGACUAAAUGUCGGUCGGGGAAGAUGUAUUCUUCUCAUAAGAUAUAGUCGGACCUCUCCUUAAUGGGAGCUAGCGGAUGAAGUGAUGCAACACUGGAGCCGCUGGGAACUAAUUUGUAUGCGAAAGUAUAUUGAUUAGUUUUGGAGUACUCGUGGUCG
In short: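 The eight P1ex-region nucleotides of an intron in the knt kanamycin-resistance gene on pET-22b(+) were all randomised and the library put into E. coli BL21(DE3). Six replicate transformations were grown overnight at 37°C or 30°C on LB agar with or without 25 μg/mL kanamycin, together with 100 μg/mL carbenicillin, 50 μM IPTG and 0.2% rhamnose. Colonies were pooled and amplicon-sequenced on an Illumina HiSeq 2500. Fitness from DiMSum is the error-weighted combination of wild-type-normalised replicate fold changes, kanamycin over none.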

Row | Sequence | self-splicing fitness (ln) (30 °C) | self-splicing fitness (ln) (37 °C)
1 | AUGUAGCAAUAUUACGCCAG | -3.46 ± 0.31 | -1.05 ± 0.31
2 | UCUAAGCAAUAUUACGUUUU | -3.43 ± 0.19 | -3.06 ± 0.29
3 | CGACAGCAAUAUUACGUGGC | -3.68 ± 0.28 | -3.29 ± 0.26
4 | CAAAAGCAAUAUUACGCGAG | -2.58 ± 0.098 | -1.06 ± 0.078
5 | UCAAAGCAAUAUUACGACUG | -0.4 ± 0.086 | -0.859 ± 0.11
6 | UCUUAGCAAUAUUACGAGCU | -3.09 ± 0.34 | -1.01 ± 0.26
7 | CGCGAGCAAUAUUACGAAAA | -1.55 ± 0.43 | -3.06 ± 0.4
8 | GCUAAGCAAUAUUACGUCUU | -1.18 ± 0.13 | 0.136 ± 0.13
9 | UCGCAGCAAUAUUACGUUUU | -4.52 ± 0.36 | -2.9 ± 0.23
10 | GGGGAGCAAUAUUACGAGGU | -3.44 ± 0.22 | -1.82 ± 0.26
11 | UUGAAGCAAUAUUACGUCCA | 0.231 ± 0.094 | 0.472 ± 0.12
12 | CCACAGCAAUAUUACGUCAA | -2.92 ± 0.15 | -2.22 ± 0.21
13 | UAAUAGCAAUAUUACGCUCA | -0.0964 ± 0.088 | -0.235 ± 0.096
14 | AAAUAGCAAUAUUACGAGUG | -2.42 ± 0.12 | -0.435 ± 0.1
15 | CUCUAGCAAUAUUACGAGGC | -3.18 ± 0.36 | 
16 | CAACAGCAAUAUUACGGCAG | -0.117 ± 0.069 | -0.00847 ± 0.076
17 | UCGAAGCAAUAUUACGUAAG | -1.85 ± 0.13 | -0.0359 ± 0.13
18 | UCGCAGCAAUAUUACGUCGC | -3.2 ± 0.37 | 
19 | AGGUAGCAAUAUUACGCUUC | -3.52 ± 0.036 | -2.83 ± 0.054
20 | CCCCAGCAAUAUUACGGUUA | -3.5 ± 0.17 | -2.61 ± 0.13

Row | Sequence | self-splicing fitness (ln) (30 °C) | self-splicing fitness (ln) (37 °C)
21 | GGAGAGCAAUAUUACGAUUA |  | -0.884 ± 0.37
22 | CGUGAGCAAUAUUACGCAAU | -2.52 ± 0.14 | -2.75 ± 0.25
23 | CGGUAGCAAUAUUACGUUCU | -0.482 ± 0.087 | -0.439 ± 0.1
24 | UAAUAGCAAUAUUACGUCAC | -3.93 ± 0.26 | 0.0385 ± 0.19
25 | GGCUAGCAAUAUUACGAAUC | 0.199 ± 0.18 | 0.239 ± 0.19
26 | UACCAGCAAUAUUACGAAAG | -1.95 ± 0.15 | -1.28 ± 0.15
27 | UGGAAGCAAUAUUACGACCG | -0.874 ± 0.13 | -0.818 ± 0.17
28 | AUUGAGCAAUAUUACGAUUA | -2.36 ± 0.23 | -2.62 ± 0.36
29 | AGCCAGCAAUAUUACGGUCA | -0.0408 ± 0.09 | 0.4 ± 0.093
30 | AACAAGCAAUAUUACGCCUA | -0.12 ± 0.059 | 0.231 ± 0.065
31 | GACAAGCAAUAUUACGCAAU | -3.08 ± 0.15 | -1.58 ± 0.12
32 | UCGAAGCAAUAUUACGGUUC | -4.34 ± 0.34 | -2.79 ± 0.32
33 | UAUAAGCAAUAUUACGCUCG | -0.59 ± 0.082 | -0.442 ± 0.11
34 | GUCUAGCAAUAUUACGCCUA | -0.955 ± 0.31 | -0.323 ± 0.27
35 | UCACAGCAAUAUUACGAGAU | -4.39 ± 0.25 | -2.85 ± 0.24
36 | GCAUAGCAAUAUUACGUAUG | -2.85 ± 0.17 | -2.44 ± 0.26
37 | CUACAGCAAUAUUACGAGGC |  | -1.35 ± 0.3
38 | GGAUAGCAAUAUUACGGCCA | -0.925 ± 0.19 | -0.211 ± 0.18
39 | UAGUAGCAAUAUUACGCUUC |  | -1.91 ± 0.37
40 | CAAGAGCAAUAUUACGCCUU | -3.52 ± 0.32 | -2.57 ± 0.41
